B1: BMPRII extracellular domain (ECD), wild type [human] / BMP10 growth factor (GF)-domain from Pro:BMP10 made in HEK EBNA cells [human] (parent complex)
chain 1: SQNQERLCAFKDPYQQDLGIGESRISHENGTILCSKGSTCYGLWEKSKGDINLVKQGCWSHIGDPQECHYEECVVTTTPPSIQNGTYRFCCCSTDLCNVNFTENFPPPDTTPLSPPHSFNRDET
chain 2: NAKGNYCKRTPLYIDFKEIGWDSWIIAPPGYEAYECRGVCNYPLAEHLTPTKHAIIQALVHLKNSQKASKACCVPTKLEPISILYLDKGVVTYKFKYEGMAVSECGCR

Variants of: B1
Experiment: SPR (Biacore); BMP10 immobilised on a CM5 Biacore chip; parent: 0.161

Going from chain 1 SQNQERLCAFKDPYQQDLGIGESRISHENGTILCSKGSTCYGLWEKSKGDINLVKQGCWSHIGDPHECHYEECVVTTTPPSIQNGTYRFCCCSTDLCNVNFTENFPPPDTTPLSPPHSFNRDET [chain 1 Q66H] to chain 1 SQNQERLCAFKDPYQQDLGIGESRISHENGTILCSKGSTCYGLWEKSKGDINLVKQGCWSHIGDPQECHYEECVVTTTPPPIQNGTYRFCCCSTDLCNVNFTENFPPPDTTPLSPPHSFNRDET [chain 1 S81P], the koff falls from 0.147 s⁻¹ to 0.0423 s⁻¹ (3.5-fold).

Going from chain 1 SQNQERLCAFKDPYQQDLGIGESRISHENGTILCSKGSTCYGLWEKSKGDINLVKQGCWSHIADPQECHYEECVVTTTPPSIQNGTYRFCCCSTDLCNVNFTENFPPPDTTPLSPPHSFNRDET [chain 1 G63A] to chain 1 SQNQERLCAFKDPYQQDLGIGESRISHENGTILCSKGSTCYGLWEKSKGDINLVKQGCWSHIEDPQECHYEECVVTTTPPSIQNGTYRFCCCSTDLCNVNFTENFPPPDTTPLSPPHSFNRDET [chain 1 G63E], the koff rises from 0.331 s⁻¹ to 0.609 s⁻¹ (1.8-fold).

First: chain 1 SQNQERLCAFKDPYQQDLGIGESRISHENGTILCSKGSTCYGLWEKSKGDINLVKQGCWSHIWDPQECHYEECVVTTTPPSIQNGTYRFCCCSTDLCNVNFTENFPPPDTTPLSPPHSFNRDET [chain 1 G63W]
Second: chain 1 SQNQERLCAFKDPYQQDLGIGESRISHENGTILCSKGSTCYGLWEKSKGDINLVKQGCWSHIGDPQECHYEKCVVTTTPPSIQNGTYRFCCCSTDLCNVNFTENFPPPDTTPLSPPHSFNRDET [chain 1 E72K]
The koff of the first is 2.7-fold higher: 0.433 s⁻¹ for the first, 0.158 s⁻¹ for the second.

Variants of: B1
Experiment: SPR (Biacore); BMP10 immobilised on a CM5 Biacore chip; parent: 1.35e+05

chain 1 SQNQERLCAFKDPYQQDLGIGESRISHENGTILCSKGSTCYGLWEKSKGDINLVKQGCWSHIGDPHECHYEECVVTTTPPSIQNGTYRFCCCSTDLCNVNFTENFPPPDTTPLSPPHSFNRDET [chain 1 Q66H] and chain 1 SQNQERLCAFKDPYQQDLGIGESRISHENGTILCSKGSTCYGLWEKSKGDINLVKQGCWSHIGDPQECHYEECVVTTTPPPIQNGTYRFCCCSTDLCNVNFTENFPPPDTTPLSPPHSFNRDET [chain 1 S81P] are within 1.5-fold of each other in kon: 120000 M⁻¹ s⁻¹ for the first, 129000 M⁻¹ s⁻¹ for the second.

Compared with chain 1 SQNQERLCAFKDPYQQDLGIGESRISHENGTILCSKGSTCYGLWEKSKGDINLVKQGCWSHIADPQECHYEECVVTTTPPSIQNGTYRFCCCSTDLCNVNFTENFPPPDTTPLSPPHSFNRDET [chain 1 G63A], chain 1 SQNQERLCAFKDPYQQDLGIGESRISHENGTILCSKGSTCYGLWEKSKGDINLVKQGCWSHIEDPQECHYEECVVTTTPPSIQNGTYRFCCCSTDLCNVNFTENFPPPDTTPLSPPHSFNRDET [chain 1 G63E] is 26-fold lower in kon: 104000 M⁻¹ s⁻¹ for the first, 3980 M⁻¹ s⁻¹ for the second.

Going from chain 1 SQNQERLCAFKDPYQQDLGIGESRISHENGTILCSKGSTCYGLWEKSKGDINLVKQGCWSHIWDPQECHYEECVVTTTPPSIQNGTYRFCCCSTDLCNVNFTENFPPPDTTPLSPPHSFNRDET [chain 1 G63W] to chain 1 SQNQERLCAFKDPYQQDLGIGESRISHENGTILCSKGSTCYGLWEKSKGDINLVKQGCWSHIGDPQECHYEKCVVTTTPPSIQNGTYRFCCCSTDLCNVNFTENFPPPDTTPLSPPHSFNRDET [chain 1 E72K], the kon rises from 1830 M⁻¹ s⁻¹ to 148000 M⁻¹ s⁻¹ (81-fold).

Variants of: B1
Experiment: SPR (Biacore); BMP10 immobilised on a CM5 Biacore chip; parent: 1.19e+03 nM

First: chain 1 SQNQERLCAFKDPYQQDLGIGESRISHENGTILCSKGSTCYGLWEKSKGDINLVKQGCWSHIGDPHECHYEECVVTTTPPSIQNGTYRFCCCSTDLCNVNFTENFPPPDTTPLSPPHSFNRDET [chain 1 Q66H]
Second: chain 1 SQNQERLCAFKDPYQQDLGIGESRISHENGTILCSKGSTCYGLWEKSKGDINLVKQGCWSHIGDPQECHYEECVVTTTPPPIQNGTYRFCCCSTDLCNVNFTENFPPPDTTPLSPPHSFNRDET [chain 1 S81P]
The Kd of the first is 3.7-fold higher: 1220 nM for the first, 328 nM for the second. The second binds more tightly here.

First: chain 1 SQNQERLCAFKDPYQQDLGIGESRISHENGTILCSKGSTCYGLWEKSKGDINLVKQGCWSHIADPQECHYEECVVTTTPPSIQNGTYRFCCCSTDLCNVNFTENFPPPDTTPLSPPHSFNRDET [chain 1 G63A]
Second: chain 1 SQNQERLCAFKDPYQQDLGIGESRISHENGTILCSKGSTCYGLWEKSKGDINLVKQGCWSHIEDPQECHYEECVVTTTPPSIQNGTYRFCCCSTDLCNVNFTENFPPPDTTPLSPPHSFNRDET [chain 1 G63E]
The Kd of the first is 48-fold lower: 3190 nM for the first, 153000 nM for the second.

Compared with chain 1 SQNQERLCAFKDPYQQDLGIGESRISHENGTILCSKGSTCYGLWEKSKGDINLVKQGCWSHIWDPQECHYEECVVTTTPPSIQNGTYRFCCCSTDLCNVNFTENFPPPDTTPLSPPHSFNRDET [chain 1 G63W], chain 1 SQNQERLCAFKDPYQQDLGIGESRISHENGTILCSKGSTCYGLWEKSKGDINLVKQGCWSHIGDPQECHYEKCVVTTTPPSIQNGTYRFCCCSTDLCNVNFTENFPPPDTTPLSPPHSFNRDET [chain 1 E72K] is 220-fold lower in Kd: 237000 nM for the first, 1070 nM for the second.

— PMC9064986 (2022)
